# Test results reported in article PMC3433420.
# Values joined by “and” are separate entries in the source; they are usually repeats but may differ in a detail not shown here. Identical values can stand only once. Like-named read-outs stand apart in the source and are kept apart here.
# How the values were obtained:
# [1] = target: PIK3R1-NC (Homo sapiens) (UniProt P27986); conditions: cited from earlier work
# [2] = target: SLA (Homo sapiens) (UniProt Q13239); conditions: cited from earlier work
# SLA (Homo sapiens), sequence (Q13239 79-180): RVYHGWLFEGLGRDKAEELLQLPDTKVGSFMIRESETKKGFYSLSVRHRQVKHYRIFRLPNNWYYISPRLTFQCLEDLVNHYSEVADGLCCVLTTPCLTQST
# [3] = target: PLCG2 tandem SH2 domains (human); experiment: peptide or protein array; SH2/PTB proteins spotted on aldehyde slides, rhodamine peptide titrated in buffer B (20 mM HEPES, 100 mM KCl, 0.1% Tween-20, 5 mM DTT, pH 7.8), 1 h at room temperature; replicate assays
# [4] = target: ITK SH2 domain (human) (UniProt Q08881); experiment: as above
# ITK SH2 domain (human), sequence (Q08881 239-338): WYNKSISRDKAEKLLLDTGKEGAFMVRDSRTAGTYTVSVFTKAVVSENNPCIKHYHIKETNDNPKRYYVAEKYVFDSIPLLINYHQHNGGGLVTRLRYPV
# [5] = target: SRC SH2 domain (human) (UniProt P12931); experiment: as above
# [6] = target: ABL2 SH2 domain (human) (UniProt P42684); experiment: as above
# ABL2 SH2 domain (human), sequence (P42684 173-263): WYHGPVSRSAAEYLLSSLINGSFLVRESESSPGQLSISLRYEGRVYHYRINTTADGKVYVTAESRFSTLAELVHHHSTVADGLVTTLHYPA
# [7] = target: SH2D2A SH2 domain (human) (UniProt Q9NP31); experiment: as above
# SH2D2A SH2 domain (human), sequence (Q9NP31 95-186): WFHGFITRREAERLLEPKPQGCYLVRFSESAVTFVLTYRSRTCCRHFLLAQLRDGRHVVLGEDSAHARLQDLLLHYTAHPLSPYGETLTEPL
# [8] = target: LYN (Homo sapiens) (UniProt P07948); conditions: cited from earlier work
# LYN (Homo sapiens), sequence (P07948 124-231): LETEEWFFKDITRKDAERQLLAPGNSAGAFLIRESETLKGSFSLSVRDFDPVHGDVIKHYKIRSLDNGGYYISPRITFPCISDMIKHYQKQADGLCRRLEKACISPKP
# [9] = target: GRB7 (Homo sapiens) (UniProt Q14451); conditions: cited from earlier work
# GRB7 (Homo sapiens), sequence (Q14451 426-532): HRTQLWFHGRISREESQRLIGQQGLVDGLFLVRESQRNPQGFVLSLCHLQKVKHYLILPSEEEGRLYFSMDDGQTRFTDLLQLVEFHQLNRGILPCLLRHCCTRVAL
# [10] = target: YES1 (Homo sapiens) (UniProt P07947); conditions: cited from earlier work
# YES1 (Homo sapiens), sequence (P07947 153-260): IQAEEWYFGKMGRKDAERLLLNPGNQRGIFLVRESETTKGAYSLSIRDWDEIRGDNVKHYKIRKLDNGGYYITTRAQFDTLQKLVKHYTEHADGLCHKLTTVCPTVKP
# [11] = target: SH2B2 (Homo sapiens) (UniProt O14492); conditions: cited from earlier work
# SH2B2 (Homo sapiens), sequence (O14492 412-520): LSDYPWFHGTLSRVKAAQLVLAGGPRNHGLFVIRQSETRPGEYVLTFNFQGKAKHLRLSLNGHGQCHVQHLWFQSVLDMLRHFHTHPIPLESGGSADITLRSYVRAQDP
# [12] = target: DAPP1 (Homo sapiens) (UniProt Q9UN19); conditions: cited from earlier work
# DAPP1 (Homo sapiens), sequence (Q9UN19 30-134): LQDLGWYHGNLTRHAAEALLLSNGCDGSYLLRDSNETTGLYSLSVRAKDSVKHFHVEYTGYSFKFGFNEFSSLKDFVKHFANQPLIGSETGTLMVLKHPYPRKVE
# [13] = target: PIK3R3-N (Homo sapiens) (UniProt Q92569); conditions: cited from earlier work
# [14] = target: SLA (Homo sapiens) (UniProt Q13239); conditions: cited from earlier work; remark: listed apart in the source
# [15] = target: FGR (Homo sapiens) (UniProt P09769); conditions: cited from earlier work
# [16] = target: SOCS6 (Homo sapiens) (UniProt O14544); conditions: cited from earlier work
# SOCS6 (Homo sapiens), sequence (O14544 379-496): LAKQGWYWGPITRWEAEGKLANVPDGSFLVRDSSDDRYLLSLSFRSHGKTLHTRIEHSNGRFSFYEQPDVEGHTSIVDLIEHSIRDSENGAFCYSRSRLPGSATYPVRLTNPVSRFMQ
# [17] = target: TXK (Homo sapiens) (UniProt P42681); conditions: cited from earlier work
# TXK (Homo sapiens), sequence (P42681 145-251): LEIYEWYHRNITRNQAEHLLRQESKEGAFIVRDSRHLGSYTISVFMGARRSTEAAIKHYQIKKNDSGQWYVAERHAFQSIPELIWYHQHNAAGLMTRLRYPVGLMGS
# [18] = target: SH2D3C (Homo sapiens) (UniProt Q8N5H7); conditions: cited from earlier work
# SH2D3C (Homo sapiens), sequence (Q8N5H7 215-324): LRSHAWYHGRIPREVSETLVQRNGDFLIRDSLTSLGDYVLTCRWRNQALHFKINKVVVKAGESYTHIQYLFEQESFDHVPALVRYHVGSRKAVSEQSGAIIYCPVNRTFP
# [19] = target: RASA1-N (Homo sapiens) (UniProt P20936); conditions: cited from earlier work
# RASA1-N (Homo sapiens), sequence (P20936 176-446): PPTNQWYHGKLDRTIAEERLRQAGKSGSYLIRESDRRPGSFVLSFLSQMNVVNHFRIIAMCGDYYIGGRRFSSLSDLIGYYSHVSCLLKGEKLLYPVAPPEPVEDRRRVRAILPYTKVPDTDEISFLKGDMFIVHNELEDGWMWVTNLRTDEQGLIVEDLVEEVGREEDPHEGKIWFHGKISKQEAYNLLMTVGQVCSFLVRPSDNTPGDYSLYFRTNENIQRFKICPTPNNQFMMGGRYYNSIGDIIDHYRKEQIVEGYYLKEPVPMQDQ
# [20] = target: ITK (Homo sapiens) (UniProt Q08881); conditions: cited from earlier work
# ITK (Homo sapiens), sequence (Q08881 234-343): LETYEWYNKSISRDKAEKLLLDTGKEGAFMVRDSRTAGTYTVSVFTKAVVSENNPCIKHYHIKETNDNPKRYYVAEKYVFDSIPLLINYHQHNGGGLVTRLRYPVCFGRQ
# [21] = target: VAV2 (Homo sapiens) (UniProt P52735); conditions: cited from earlier work
# VAV2 (Homo sapiens), sequence (P52735 668-772): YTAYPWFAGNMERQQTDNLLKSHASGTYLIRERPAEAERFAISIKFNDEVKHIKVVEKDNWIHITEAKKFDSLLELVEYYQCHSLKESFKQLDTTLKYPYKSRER
# [22] = target: SHC2-PTB (Homo sapiens) (UniProt P98077); conditions: cited from earlier work
# SHC2-PTB (Homo sapiens), sequence (P98077 482-582): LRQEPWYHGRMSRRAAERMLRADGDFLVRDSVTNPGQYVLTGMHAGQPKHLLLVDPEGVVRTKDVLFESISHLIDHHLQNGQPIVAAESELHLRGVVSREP
# [23] = target: BLK (Homo sapiens) (UniProt P51451); conditions: cited from earlier work
# BLK (Homo sapiens), sequence (P51451 119-225): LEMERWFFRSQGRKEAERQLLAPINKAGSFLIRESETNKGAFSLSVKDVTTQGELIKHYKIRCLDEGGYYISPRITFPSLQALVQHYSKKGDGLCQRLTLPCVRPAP
# [24] = target: DAPP1 (Homo sapiens) (UniProt Q9UN19); conditions: cited from earlier work; remark: listed apart in the source
# [25] = target: TENC1 (Homo sapiens) (UniProt Q63HR2); conditions: cited from earlier work
# TENC1 (Homo sapiens), sequence (Q63HR2 1135-1252): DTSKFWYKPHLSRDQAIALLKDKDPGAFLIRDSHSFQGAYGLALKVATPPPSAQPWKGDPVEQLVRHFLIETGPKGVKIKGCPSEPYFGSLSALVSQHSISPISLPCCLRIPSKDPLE
# [26] = target: TNS4 (Homo sapiens) (UniProt Q8IZW8); conditions: cited from earlier work
# TNS4 (Homo sapiens), sequence (Q8IZW8 444-561): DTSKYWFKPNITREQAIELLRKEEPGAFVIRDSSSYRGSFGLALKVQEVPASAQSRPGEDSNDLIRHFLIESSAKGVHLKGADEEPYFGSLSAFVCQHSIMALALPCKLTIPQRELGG
# [27] = target: ABL1 (Homo sapiens) (UniProt P00519); conditions: cited from earlier work
# ABL1 (Homo sapiens), sequence (P00519 122-222): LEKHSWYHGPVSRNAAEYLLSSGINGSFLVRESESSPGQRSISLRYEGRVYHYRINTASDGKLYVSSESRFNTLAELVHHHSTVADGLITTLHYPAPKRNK
# PIK3R1-NC (Homo sapiens), sequence (P27986 328-723): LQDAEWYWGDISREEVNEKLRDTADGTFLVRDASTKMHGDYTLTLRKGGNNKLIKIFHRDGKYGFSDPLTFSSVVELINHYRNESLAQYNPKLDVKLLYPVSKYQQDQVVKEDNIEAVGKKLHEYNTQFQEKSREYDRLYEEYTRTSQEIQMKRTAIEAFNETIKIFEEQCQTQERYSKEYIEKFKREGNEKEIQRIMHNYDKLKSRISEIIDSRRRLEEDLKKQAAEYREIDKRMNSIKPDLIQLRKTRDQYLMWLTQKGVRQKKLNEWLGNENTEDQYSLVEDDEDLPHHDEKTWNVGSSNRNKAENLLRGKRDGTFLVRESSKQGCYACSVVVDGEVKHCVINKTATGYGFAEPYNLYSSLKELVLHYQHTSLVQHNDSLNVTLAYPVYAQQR
substance,measurement,setting,value
…pYLIPQQGFd,apparent Kd (screen),[1],0.175 µM
same,apparent Kd (screen),[2],2 µM
"ErbB4 pY1262 phosphopeptide, rhodamine-labelled, for protein microarrays",Kd,[3],0.126 µM and 0.381 µM
same,Kd,[4],0.401 µM and 0.802 µM
same,Kd,[5],0.403 µM and 2.1 µM
same,Kd,[6],0.0606 µM and 0.306 µM
same,Kd,[7],1.17 µM
…pYLVPQQGF,apparent Kd (screen),[8],2 µM
same,apparent Kd (screen),[9],1.8 µM
same,apparent Kd (screen),[10],1.17 µM
same,apparent Kd (screen),[11],2 µM
same,apparent Kd (screen),[12],2 µM
same,apparent Kd (screen),[13],1.93 µM
same,apparent Kd (screen),[14],2 µM
…pYWDQDPPE,apparent Kd (screen),[15],2 µM
same,apparent Kd (screen),[16],2 µM
same,apparent Kd (screen),[17],2 µM
same,apparent Kd (screen),[18],0.705 µM
same,apparent Kd (screen),[19],0.504 µM
same,apparent Kd (screen),[20],2 µM
same,apparent Kd (screen),[21],2 µM
same,apparent Kd (screen),[22],0.457 µM
same,apparent Kd (screen),[23],2 µM
…pYEEMRAFQ,apparent Kd (screen),[24],0.999 µM
same,apparent Kd (screen),[25],2 µM
same,apparent Kd (screen),[26],1.95 µM
same,apparent Kd (screen),[27],0.633 µM
